Columns and labels:
[1] = molecular target: Islet amyloid polypeptide (IAPP), human (human) (UniProt P10997); test: FRET or BRET; diluted-FRET inside live INS-1 cells; 10 uM IAPP, no ADM-116 (toxic condition); donor:acceptor:unlabelled 1:1:500; 24 h
[2] = molecular target: Islet amyloid polypeptide (IAPP), human (human) (UniProt P10997); test: FRET or BRET; diluted-FRET inside live INS-1 cells; 10 uM IAPP, no ADM-116 (toxic condition); donor:acceptor:unlabelled 1:1:500; 48 h
[3] = molecular target: Islet amyloid polypeptide (IAPP), human (human) (UniProt P10997); test: FRET or BRET; diluted-FRET by confocal imaging on GPMVs from INS-1 cells; 50 uM IAPP, 5 uM phospholipid, no ADM-116 (10:1:0); donor:acceptor:unlabelled 1:1:500; first 34 min (small sieve size leakage)
[4] = molecular target: Islet amyloid polypeptide (IAPP), human (human) (UniProt P10997); test: FRET or BRET; diluted-FRET inside live INS-1 cells; 10 uM IAPP in the medium, equimolar ADM-116 added 3 h later (rescued condition); donor:acceptor:unlabelled 1:1:100; 24 h and 48 h

- FRETeff (peak 1 of 4, first 34 min) [3]: 0.21
- FRETeff (peak 2 of 4, first 34 min) [3]: 0.36
- FRETeff (peak 3 of 4, first 34 min) [3]: 0.41
- FRETeff (peak 4 of 4, first 34 min) [3]: 0.58
- FRETeff (single peak, rescued with ADM-116) [4]: 0.6
Substance: Islet amyloid polypeptide (IAPP), human (from UniProt P10997 34-70)
- FRETeff (peak at 24 h) [1]: 0.36
- FRETeff (peak at 48 h) [2]: 0.62

Reference: article PMC5882805
